{"source": "patent US20200131227A1", "about": "“POLYPEPTIDE WITH TUMOUR BINDING ACTIVITY” (RUPRECHT-KARLS-UNIVERSITÄT HEIDELBERG, priority 2017, published 2020)", "key": {"[1]": {"experiment": "Small-animal PET imaging, HNO399 xenografts", "design": "species or system mice", "conditions": "Balb/c nude, mouse, in vivo, iv, total radioactivity"}, "[2]": {"experiment": "Small-animal PET imaging, HNO223 xenografts", "design": "species or system mice", "conditions": "Balb/c nude, mouse, in vivo, iv, total radioactivity"}, "[3]": {"experiment": "in vivo", "conditions": "Balb/c nude, mouse, iv, total radioactivity", "procedure": "(§1) All experiments were conducted in compliance with the German animal protection laws. Eight week old Balb c/c nude mice (Charles River Laboratories) were inoculated subcutaneously at the right shoulder with 5×10^6 HNO97 cells in BD MatriGel™ (BD Bioscience). Xenografts were grown to a tumor diameter of 10-15 mm. For small animal-PET imaging mice were anesthetized using isoflurane inhalation and injected via tail-vein with 50 MBq (2 nmol) of the ^68Ga-labeled DOTA-SFITGv6 peptide (see above) solution in 100 μL PBS. Images were recorded on an Inveon small-animal PET scanner (Siemens) using a 60 min emission scan in list mode and a 10 min transmission scan. Images were taken in 3-dimensional (3D) mode and reconstructed iteratively with a fully 3D algorithm from a 256×256 matrix for viewing transaxial, coronal, and sagittal slices of 0.9 mm thickness. Pixel size was 0.38×0.38×0.79 mm3 and transaxial resolution obtained was 0.9 mm. For blocking experiments 100 μL of a 1 mM aqueous solution of SFITGv6 was pre-administered intraperitoneally 30 min before injection of the radiolabeled peptide. Biodistribution studies were performed after administration of 100 μL of a 20 nM ^177Lu-DOTA-SFITGv6 solution (1 MBq) as an intravenous bolus injection into the tail vein of the mice. After different time points (30 min to 6 hours) three animals, respectively, were sacrificed. Peripheral blood, heart, lung, spleen, liver, kidneys, muscle, brain, intestine, and injection site (tail, after intravenous injection only) were collected and weighted. Tissue-associated radioactivity was measured in a gamma counter (Berthold LB951G) and expressed as percentage of the injected dose per gram tissue (% ID/g).\n(§2) All animal experiments were conducted in compliance with the German animal protection laws. For in vivo small animal PET imaging and organ distribution studies eight-week old Balb/c nude mice (Charles River Laboratories) were inoculated subcutaneously at the right shoulder with a total of 5×10^6 tumor cells in MatriGel (BD Bioscience). Xenografts were grown until a tumor diameter of 10-15 mm was reached.\n(§3) 3-dimensional (3D) PET images of whole mice were captured by the Siemens Inveon PET scanner as described in Example 1. To assess the biodistribution 100 μL of a 20 nM solution (1 MBq) of ^177Lu-DOTA-SFLAP3 and ^177Lu-DOTA-SFITGv6 were administered as an intravenous bolus injection into the tail vein of mice. For each time point (30 min to 6 hours) we sacrificed a total of three animals, and subsequently collected peripheral blood, heart, lung, spleen, liver, kidneys, muscle, brain, and intestine. Tissues were weighed and respective radioactivity was measured by a gamma counter (LB951G, Berthold Technologies). Values were expressed as percentage of the injected dose radioactivity (MBq) per gram tissue (% ID/g)."}, "[4]": {"test_system": "HNO97 xenografts", "experiment": "in vivo", "conditions": "mouse", "procedure": "as §1, §2, §3"}, "[5]": {"test_system": "NSCLC", "conditions": "human, in vivo", "procedure": "(§4) The PET/CT scan was performed 1 and 3 hours post tracer administration with a Biograph mCT Flow™ PET/CT-Scanner (Siemens Medical Solution) using the following parameters: slice thickness of 5 mm, increment of 3-4 mm, soft-tissue reconstruction kernel, care dose Immediately after CT scanning, a whole-body PET was acquired in 3D (matrix 200×200) in FlowMotion™ with 0.7 cm/min. The emission data were corrected for random, scatter and decay. Reconstruction was conducted with an ordered subset expectation maximisation (OSEM) algorithm with 2 iterations/21 subsets and Gauss-filtered to a transaxial resolution of 5 mm at full-width half-maximum (FWHM). Attenuation correction was performed using the low-dose non-enhanced CT data. The quantitative assessment of standardized uptake values (SUV) was done using a region of interest technique."}, "[6]": {"test_system": "recurrent hypopharynx carcinoma", "conditions": "human, in vivo", "procedure": "as §4"}}, "note": "Where a SMILES comes first, the peptide text is derived from it. Bridges are numbered along the chain shown (N, C = ends). The star is where a group is joined. DOTA = O=C(O)CN1CCN(CC(=O)O)CCN(CC(=O)*)CCN(CC(=O)O)CC1"}
{"smiles": "CSCC[C@@H]1NC(=O)[C@H](CC(C)C)NC(=O)[C@H](CC(=O)O)NC(=O)CNC(=O)[C@H](CCCNC(=N)N)NC(=O)[C@H](Cc2ccccc2)NC(=O)[C@H]([C@@H](C)O)NC(=O)[C@@H](NC(=O)[C@H](CCCNC(=N)N)NC(=O)CNC(=O)CN2CCN(CC(=O)O)CCN(CC(=O)O)CCN(CC(=O)O)CC2)CSSC[C@@H](C(=O)N[C@@H](Cc2ccc(O)cc2)C(=O)N2CCC[C@H]2C(=O)N[C@@H](CC(=O)O)C(=O)O)NC(=O)[C@H](CC(C)C)NC(=O)[C@H](CCC(N)=O)NC1=O", "note": "[^68Ga-DOTA-SFITGv6, metal not drawn] ({DOTA}-GRCTFRGDLMQLCYPD-OH; disulfide 3-13)", "values": [{"measurement": "SUV at 1 h", "setting": "[1]", "result": 0.33, "unit": "SUV"}, {"measurement": "SUV at 1 h", "setting": "[2]", "result": 0.23, "unit": "SUV"}, {"measurement": "SUV at 1 h", "setting": "[3]", "result": 0.68, "unit": "SUV"}, {"measurement": "time after injection until radioactivity accumulated in the tumor", "setting": "[4]", "result": "≤ 20", "unit": "min"}, {"measurement": "time for which tumor accumulation was maintained", "setting": "[4]", "result": "at least 140 min"}, {"measurement": "time of clearance of non-specific activity from the blood", "setting": "[4]", "result": "≤ 60", "unit": "min"}, {"measurement": "SUVmax Shoulder", "setting": "[5]", "result": 1.50}, {"measurement": "SUVmax Elbow", "setting": "[6]", "result": 1.70}, {"measurement": "SUVmax Gallbladder", "setting": "[6]", "result": 1.90}, {"measurement": "SUVmax Hilar", "setting": "[6]", "result": 1.00}]}
